Our source for the protein stability index values is the supplement of paper PMC10567573.

B1: ZNF449 (parent)
chain: HTGERPYECTVCKKRFTRRSHLIG
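Note: lentivirally expressed fusions sorted by FACS into six bins by GFP to DsRed ratio, PSI derived from sequencing read proportions per bin multiplied by bin number.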

In this data set the parent is B1. The data set can be described thus: protein stability index of a GFP-peptide fusion (GPS, HEK-293T) (PSI 1-6); higher = more stable. To be noted: c terminus: a fixed tail appended.
For the variant HTGERPYKCTVCKKRFTRRSHLIG [E8K], the protein stability index was 1.96.

For the variant HTGERPYQCTVCKKRFTRRSHLIG [E8Q], the protein stability index turned out to be 2.76. Then HTGERPYWCTVCKKRFTRRSHLIG [E8W], with 2.23. For the variant HTGERPYFCTVCKKRFTRRSHLIG [E8F], the protein stability index came out at 1.84.

Regarding HTGERPYCCTVCKKRFTRRSHLIG [E8C], the protein stability index amounted to 2.38. As to HTGERPYSCTVCKKRFTRRSHLIG [E8S], the protein stability index came out at 2.32. Turning to HTGERPYHCTVCKKRFTRRSHLIG [E8H], the protein stability index is 2.12.

For the variant HTGERPYTCTVCKKRFTRRSHLIG [E8T], the protein stability index was 2. The value for HTGERPYGCTVCKKRFTRRSHLIG [E8G] was 1.84.

With HTGERWYECTVCKKRFTRRSHLIG [P6W], the protein stability index came to 2.38. In the case of HTGERNYECTVCKKRFTRRSHLIG [P6N], the protein stability index is 2.3. The value for HTGERRYECTVCKKRFTRRSHLIG [P6R] was 1.82; that for HTGERQYECTVCKKRFTRRSHLIG [P6Q] was 3.29; that for HTGERTYECTVCKKRFTRRSHLIG [P6T] was 2.58. Regarding HTGERVYECTVCKKRFTRRSHLIG [P6V], the protein stability index was 3.36. The value for HTGERHYECTVCKKRFTRRSHLIG [P6H] was 2.64. Then HTGERMYECTVCKKRFTRRSHLIG [P6M], with 2.74; and HTGERFYECTVCKKRFTRRSHLIG [P6F], with 1.75; and HTGERYYECTVCKKRFTRRSHLIG [P6Y], with 2.22.

For the variant HTGERGYECTVCKKRFTRRSHLIG [P6G], the protein stability index worked out at 2.77. For the variant HTGERIYECTVCKKRFTRRSHLIG [P6I], the protein stability index was found to be 2.08. The value for HTGERAYECTVCKKRFTRRSHLIG [P6A] was 2.67. Then HTGERDYECTVCKKRFTRRSHLIG [P6D], with 2.52. As to HTGEREYECTVCKKRFTRRSHLIG [P6E], the protein stability index turned out to be 2.34. Then HTGERLYECTVCKKRFTRRSHLIG [P6L], with 1.58; and HTGERKYECTVCKKRFTRRSHLIG [P6K], with 2.02; and HTGERPYECFVCKKRFTRRSHLIG [T10F], with 2.88.

HTGERPYECCVCKKRFTRRSHLIG [T10C]: the protein stability index was determined as 2.54.

With HTGERPYECAVCKKRFTRRSHLIG [T10A], the protein stability index came to 2.42.

On to HTGERPYECVVCKKRFTRRSHLIG [T10V], for which the protein stability index is 1.39. Then HTGERPYECQVCKKRFTRRSHLIG [T10Q], with 1.36. Then HTGERPYECPVCKKRFTRRSHLIG [T10P], with 1.82. As to HTGERPYECIVCKKRFTRRSHLIG [T10I], the protein stability index was found to be 3.07. Then HTGERPYECDVCKKRFTRRSHLIG [T10D], with 1.97. Then HTGERPYECSVCKKRFTRRSHLIG [T10S], with 2.52. Take HTGERPYECLVCKKRFTRRSHLIG [T10L]: the protein stability index worked out at 2.37. Then HTGERPYECNVCKKRFTRRSHLIG [T10N], with 2.17.

Regarding HTGERPYECWVCKKRFTRRSHLIG [T10W], the protein stability index came to 1.3. Consider HTGERPYECMVCKKRFTRRSHLIG [T10M], for which the protein stability index stood at 2.51. As for HTGERPYECYVCKKRFTRRSHLIG [T10Y], the protein stability index is 3.04. Then HTGERPYEGTVCKKRFTRRSHLIG [C9G], with 3.94. The value for HTGERPYEQTVCKKRFTRRSHLIG [C9Q] was 3.64; that for HTGERPYEKTVCKKRFTRRSHLIG [C9K] was 3.97; that for HTGERPYEPTVCKKRFTRRSHLIG [C9P] was 3.7. Then HTGERPYEHTVCKKRFTRRSHLIG [C9H], with 3.03; and HTGERPYERTVCKKRFTRRSHLIG [C9R], with 3.99; and HTGERPYEVTVCKKRFTRRSHLIG [C9V], with 3.01. Regarding HTGERPYEETVCKKRFTRRSHLIG [C9E], the protein stability index was 3.31. Take HTGERPYELTVCKKRFTRRSHLIG [C9L]: the protein stability index was found to be 2.83. Then HTGERPYEITVCKKRFTRRSHLIG [C9I], with 3.17; and HTGERPYETTVCKKRFTRRSHLIG [C9T], with 3.14. Regarding HTGERPYEATVCKKRFTRRSHLIG [C9A], the protein stability index came out at 3.85. The value for HTGERPYEDTVCKKRFTRRSHLIG [C9D] was 4.05. As for HTGERPYEMTVCKKRFTRRSHLIG [C9M], the protein stability index is 2.8. The value for HTGERPYEWTVCKKRFTRRSHLIG [C9W] was 3.62; that for HTGERPYEFTVCKKRFTRRSHLIG [C9F] was 2.39; that for HTGERPYENTVCKKRFTRRSHLIG [C9N] was 3.63. The value for HTGERPYEYTVCKKRFTRRSHLIG [C9Y] was 3.67.

HTGERPYESTVCKKRFTRRSHLIG [C9S]: the protein stability index was 3.69. Then HTGERPAECTVCKKRFTRRSHLIG [Y7A], with 2.8; and HTGERPCECTVCKKRFTRRSHLIG [Y7C], with 3.74. The value for HTGERPKECTVCKKRFTRRSHLIG [Y7K] was 2.44. In the case of HTGERPMECTVCKKRFTRRSHLIG [Y7M], the protein stability index was found to be 2.11. On to HTGERPGECTVCKKRFTRRSHLIG [Y7G], for which the protein stability index turned out to be 2.01. As to HTGERPDECTVCKKRFTRRSHLIG [Y7D], the protein stability index was found to be 2.6.

As for HTGERPTECTVCKKRFTRRSHLIG [Y7T], the protein stability index was found to be 2.71. Take HTGERPIECTVCKKRFTRRSHLIG [Y7I]: the protein stability index came to 2.62. With HTGERPEECTVCKKRFTRRSHLIG [Y7E], the protein stability index was found to be 2.88. Then HTGERPSECTVCKKRFTRRSHLIG [Y7S], with 2.28. Take HTGERPQECTVCKKRFTRRSHLIG [Y7Q]: the protein stability index amounted to 2.21. Then HTGERPRECTVCKKRFTRRSHLIG [Y7R], with 2.12; and HTGERPLECTVCKKRFTRRSHLIG [Y7L], with 3.39. The value for HTGERPPECTVCKKRFTRRSHLIG [Y7P] was 2.07; that for HTGERPWECTVCKKRFTRRSHLIG [Y7W] was 1.4. The value for HTGERPFECTVCKKRFTRRSHLIG [Y7F] was 1.44; that for HTGERPHECTVCKKRFTRRSHLIG [Y7H] was 2.06; that for HTGEKPYECTVCKKRFTRRSHLIG [R5K] was 1.99. For the variant HTGEYPYECTVCKKRFTRRSHLIG [R5Y], the protein stability index was 2.82.

Take HTGELPYECTVCKKRFTRRSHLIG [R5L]: the protein stability index is 2.09.

As to HTGEEPYECTVCKKRFTRRSHLIG [R5E], the protein stability index turned out to be 2.33.

Consider HTGEVPYECTVCKKRFTRRSHLIG [R5V], for which the protein stability index came to 2.07. Consider HTGEQPYECTVCKKRFTRRSHLIG [R5Q], for which the protein stability index was determined as 2.23. Then HTGEWPYECTVCKKRFTRRSHLIG [R5W], with 2; and HTGETPYECTVCKKRFTRRSHLIG [R5T], with 3.

For HTGEGPYECTVCKKRFTRRSHLIG [R5G], the protein stability index is 2.24. The value for HTGEAPYECTVCKKRFTRRSHLIG [R5A] was 1.96; that for HTGEPPYECTVCKKRFTRRSHLIG [R5P] was 2.01. The value for HTGENPYECTVCKKRFTRRSHLIG [R5N] was 1.64; that for HTGESPYECTVCKKRFTRRSHLIG [R5S] was 2.7. The value for HTGEFPYECTVCKKRFTRRSHLIG [R5F] was 1.76; that for HTGECPYECTVCKKRFTRRSHLIG [R5C] was 3.5; that for HTGEMPYECTVCKKRFTRRSHLIG [R5M] was 2.24.

Consider HTGEIPYECTVCKKRFTRRSHLIG [R5I], for which the protein stability index stood at 2.19. The value for HTGEHPYECTVCKKRFTRRSHLIG [R5H] was 2.67.
